Results reported in patent US20150139975A1 (published 2015).

Target: T1, C3b (UniProt P01024 23-667; P01024 749-1663)
T1 construct: Amine-coupled to a CM5 Biacore chip in the SPR assays; in solution in the cofactor assay; also called complement C3b
Test: SPR (Biacore), C3b amine-coupled to a CM5 chip, steady-state fit over two flow cells (1540 and 3030 RU of C3b)
Description: FIG. 3G—(i) and (ii)—Use of SPR to measure affinity of (i)rFH and (ii) plasma-purified FH for C3b coupled to aCM5 sensor chip (Biacore). Duplicate sensorgrams are shown for a concentration series (5.4 μM, 1.0 μM, 0.5 μM, 0.1 μM) flowed over 1540 response units of immobilised C3b. (iii) and (iv)—Plots of response units versus (iii)rFH or (iv) plasma-purified FH concentrations for two different flow cells with either 1540 RUs (lower curve in each plot) or 3030 RUs (upper curve in each plot) of C3b.

T1 sequence (P01024 23-667 limits assumed, chain 1 of 2): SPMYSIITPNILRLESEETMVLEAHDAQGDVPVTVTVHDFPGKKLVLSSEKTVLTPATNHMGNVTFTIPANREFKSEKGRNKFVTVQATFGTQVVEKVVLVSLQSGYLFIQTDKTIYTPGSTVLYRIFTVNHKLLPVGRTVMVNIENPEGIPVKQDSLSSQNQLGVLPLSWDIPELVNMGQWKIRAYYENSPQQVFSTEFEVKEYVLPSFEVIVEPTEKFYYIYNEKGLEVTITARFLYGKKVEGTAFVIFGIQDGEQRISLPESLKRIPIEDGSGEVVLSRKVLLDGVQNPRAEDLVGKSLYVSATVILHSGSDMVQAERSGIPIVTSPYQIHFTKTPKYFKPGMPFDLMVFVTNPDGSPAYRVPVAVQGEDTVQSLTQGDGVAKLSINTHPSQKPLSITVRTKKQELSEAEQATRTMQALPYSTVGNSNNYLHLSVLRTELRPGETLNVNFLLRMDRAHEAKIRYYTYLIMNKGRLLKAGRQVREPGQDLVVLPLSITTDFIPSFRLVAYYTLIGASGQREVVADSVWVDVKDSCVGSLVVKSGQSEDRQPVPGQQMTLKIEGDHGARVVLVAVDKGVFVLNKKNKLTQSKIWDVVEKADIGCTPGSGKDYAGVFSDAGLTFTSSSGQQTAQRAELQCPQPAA
T1 sequence (P01024 749-1663 limits assumed, chain 2 of 2): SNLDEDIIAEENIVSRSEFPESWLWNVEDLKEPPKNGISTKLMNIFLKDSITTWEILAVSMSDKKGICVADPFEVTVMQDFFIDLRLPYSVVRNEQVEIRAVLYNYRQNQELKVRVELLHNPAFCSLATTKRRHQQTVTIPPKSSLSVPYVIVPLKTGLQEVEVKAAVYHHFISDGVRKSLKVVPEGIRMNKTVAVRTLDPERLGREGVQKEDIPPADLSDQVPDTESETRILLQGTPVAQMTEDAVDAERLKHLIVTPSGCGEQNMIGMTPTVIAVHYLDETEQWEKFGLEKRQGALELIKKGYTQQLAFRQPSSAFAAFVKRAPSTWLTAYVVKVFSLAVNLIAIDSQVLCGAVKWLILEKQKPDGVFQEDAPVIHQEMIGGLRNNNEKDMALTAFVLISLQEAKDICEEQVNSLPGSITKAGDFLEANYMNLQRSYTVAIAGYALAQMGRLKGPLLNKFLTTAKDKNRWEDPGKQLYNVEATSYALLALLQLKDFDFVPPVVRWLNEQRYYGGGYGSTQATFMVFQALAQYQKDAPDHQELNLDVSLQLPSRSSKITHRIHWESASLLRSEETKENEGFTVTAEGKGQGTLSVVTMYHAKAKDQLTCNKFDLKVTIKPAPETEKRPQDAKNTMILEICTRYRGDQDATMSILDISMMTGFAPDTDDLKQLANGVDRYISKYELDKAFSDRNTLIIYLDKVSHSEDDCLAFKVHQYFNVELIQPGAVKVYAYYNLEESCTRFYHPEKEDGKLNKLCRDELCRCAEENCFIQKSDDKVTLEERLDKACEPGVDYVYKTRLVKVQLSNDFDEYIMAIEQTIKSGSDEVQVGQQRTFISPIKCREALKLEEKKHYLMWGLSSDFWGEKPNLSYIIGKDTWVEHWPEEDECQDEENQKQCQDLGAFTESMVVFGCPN

Row | Kd | Binder
1 | 1400 nM | recombinant human complement factor H (rFH) expressed from codon-optimised DNA in Pichia pastoris (other, UniProt P08603 19-1231, looked up, N-glycans removed with Endo Hf after expression, mature; also called rhFH; recombinant FH) EDCNELPPRRNTEILTGSWSDQTYPEGTQAIYKCRPGYRSLGNIIMVCRKGEWVALNPLRKCQKRPCGHPGDTPFGTFTLTGGNVFEYGVKAVYTCNEGYQLLGEINYRECDTDGWTNDIPICEVVKCLPVTAPENGKIVSSAMEPDREYHFGQAVRFVCNSGYKIEGDEEMHCSDDGFWSKEKPKCVEISCKSPDVINGSPISQKIIYKENERFQYKCNMGYEYSERGDAVCTESGWRPLPSCEEKSCDNPYIPNGDYSPLRIKHRTGDEITYQCRNGFYPATRGNTAKCTSTGWIPAPRCTLKPCDYPDIKHGGLYHENMRRPYFPVAVGKYYSYYCDEHFETPSGSYWDHIHCTQDGWSPAVPCLRKCYFPYLENGYNQNYGRKFVQGKSIDVACHPGYALPKAQTTVTCMENGWSPTPRCIRVKTCSKSSIDIENGFISESQYTYALKEKAKYQCKLGYVTADGETSGSITCGKDGWSAQPTCIKSCDIPVFMNARTKNDFTWFKLNDTLDYECHDGYESNTGSTTGSIVCGYNGWSDLPICYERECELPKIDVHLVPDRKKDQYKVGEVLKFSCKPGFTIVGPNSVQCYHFGLSPDLPICKEQVQSCGPPPELLNGNVKEKTKEEYGHSEVVEYYCNPRFLMKGPNKIQCVDGEWTTLPVCIVEESTCGDIPELEHGWAQLSSPPYYYGDSVEFNCSESFTMIGHRSITCIHGVWTQLPQCVAIDKLKKCKSSNLIILEEHLKNKKEFDHNSNIRYRCRGKEGWIHTVCINGRWDPEVNCSMAQIQLCPPPPQIPNSHNMTTTLNYRDGEKVSVLCQENYLIQEGEEITCKDGRWQSIPLCVEKIPCSQPPQIEHGTINSSRSSQESYAHGTKLSYTCEGGFRISEENETTCYMGKWSSPPQCEGLPCKSPPEISHGVVAHMSDSYQYGEEVTYKCFEGFGIDGPAIAKCLGEKWSHPPSCIKTDCLSLPSFENAIPMGEKKDVYKAGEQVTYTCATYYKMDGASNVTCINSRWTGRPTCRDTSCVNPPTVQNAYIVSRQMSKYPSGERVRYQCRSPYEMFGDEEVMCLNGNWTEPPQCKDSTGKCGPPPPIDNGDITSFPLSVYAPASSVEYQCQNLYQLEGNKRITCRNGQWSEPPKCLHPCVISREIMENYNIALRWTAKQKLYSRTGESVEFVCKRGYRLSSRSHTLRTTCWDGKLEYPTCAKR
2 | 2900 nM | plasma-purified human factor H (other, UniProt P08603 19-1231, looked up, mature; Bought, plasma-derived; also called FH; plasma FH) EDCNELPPRRNTEILTGSWSDQTYPEGTQAIYKCRPGYRSLGNVIMVCRKGEWVALNPLRKCQKRPCGHPGDTPFGTFTLTGGNVFEYGVKAVYTCNEGYQLLGEINYRECDTDGWTNDIPICEVVKCLPVTAPENGKIVSSAMEPDREYHFGQAVRFVCNSGYKIEGDEEMHCSDDGFWSKEKPKCVEISCKSPDVINGSPISQKIIYKENERFQYKCNMGYEYSERGDAVCTESGWRPLPSCEEKSCDNPYIPNGDYSPLRIKHRTGDEITYQCRNGFYPATRGNTAKCTSTGWIPAPRCTLKPCDYPDIKHGGLYHENMRRPYFPVAVGKYYSYYCDEHFETPSGSYWDHIHCTQDGWSPAVPCLRKCYFPYLENGYNQNYGRKFVQGKSIDVACHPGYALPKAQTTVTCMENGWSPTPRCIRVKTCSKSSIDIENGFISESQYTYALKEKAKYQCKLGYVTADGETSGSITCGKDGWSAQPTCIKSCDIPVFMNARTKNDFTWFKLNDTLDYECHDGYESNTGSTTGSIVCGYNGWSDLPICYERECELPKIDVHLVPDRKKDQYKVGEVLKFSCKPGFTIVGPNSVQCYHFGLSPDLPICKEQVQSCGPPPELLNGNVKEKTKEEYGHSEVVEYYCNPRFLMKGPNKIQCVDGEWTTLPVCIVEESTCGDIPELEHGWAQLSSPPYYYGDSVEFNCSESFTMIGHRSITCIHGVWTQLPQCVAIDKLKKCKSSNLIILEEHLKNKKEFDHNSNIRYRCRGKEGWIHTVCINGRWDPEVNCSMAQIQLCPPPPQIPNSHNMTTTLNYRDGEKVSVLCQENYLIQEGEEITCKDGRWQSIPLCVEKIPCSQPPQIEHGTINSSRSSQESYAHGTKLSYTCEGGFRISEENETTCYMGKWSSPPQCEGLPCKSPPEISHGVVAHMSDSYQYGEEVTYKCFEGFGIDGPAIAKCLGEKWSHPPSCIKTDCLSLPSFENAIPMGEKKDVYKAGEQVTYTCATYYKMDGASNVTCINSRWTGRPTCRDTSCVNPPTVQNAYIVSRQMSKYPSGERVRYQCRSPYEMFGDEEVMCLNGNWTEPPQCKDSTGKCGPPPPIDNGDITSFPLSVYAPASSVEYQCQNLYQLEGNKRITCRNGQWSEPPKCLHPCVISREIMENYNIALRWTAKQKLYSRTGESVEFVCKRGYRLSSRSHTLRTTCWDGKLEYPTCAKR
